Experimental data from paper PMC4926278.

Tests used:
[1] = biological target: Vpu-S52/56D, full-length Vpu (NL4-3) double mutant (HIV-1 strain NL4-3); experiment: SEC; time-dependent SEC from a stock solution over up to 12 days in 50 mM NaCl buffer; peak area P1/(P1+P2) over time fitted with a logistic growth function (dimer to higher oligomer)
[2] = biological target: Vpu-S52/56N, full-length Vpu (NL4-3) double mutant (HIV-1 strain NL4-3); experiment: as above

Substance | growth rate c of the higher oligomer (logistic fit of P1/(P1+P2) over time) [1] | growth rate c of the higher oligomer (logistic fit of P1/(P1+P2) over time) [2]
Vpu-S52/56D, full-length Vpu (NL4-3) double mutant (natural protein) | 0.56 day^−1 | –
Vpu-S52/56N, full-length Vpu (NL4-3) double mutant (natural protein) | – | 1.05 day^−1
